Measured values reported in patent publication US20140274782A1 (Stanford University, published 2014).

Legend:
Experiment in all cases: ProtoArray, GST-treated control array;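 note: human protein microarray (about 9500 recombinant proteins) incubated overnight with GST alone plus SAM cofactor as the negative control for G9a SET domain methylation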
[1] = molecular target: T1, LTC4S-Leukotriene C4 synthase (human, UniProt Q16873 1-150)
T1 sequence (looked up): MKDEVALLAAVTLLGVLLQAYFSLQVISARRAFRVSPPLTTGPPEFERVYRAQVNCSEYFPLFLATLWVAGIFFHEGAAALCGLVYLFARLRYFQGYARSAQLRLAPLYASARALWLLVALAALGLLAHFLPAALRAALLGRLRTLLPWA

[2] = molecular target: T2, CUTC-cutC copper transporter homolog (E. coli) (CUTC) (human, UniProt Q9NTM9 1-273)
T2 sequence (looked up): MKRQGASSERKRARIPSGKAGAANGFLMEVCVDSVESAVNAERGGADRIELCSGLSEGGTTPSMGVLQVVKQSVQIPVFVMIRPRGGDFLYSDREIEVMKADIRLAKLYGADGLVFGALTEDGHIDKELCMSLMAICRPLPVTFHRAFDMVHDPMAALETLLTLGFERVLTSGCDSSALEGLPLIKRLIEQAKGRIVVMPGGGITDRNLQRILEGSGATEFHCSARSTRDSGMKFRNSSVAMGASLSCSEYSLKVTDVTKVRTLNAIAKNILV

[3] = molecular target: T3, SEC22B-Vesicle-trafficking protein SEC22b (human, UniProt O75396 1-215)
T3 sequence (looked up): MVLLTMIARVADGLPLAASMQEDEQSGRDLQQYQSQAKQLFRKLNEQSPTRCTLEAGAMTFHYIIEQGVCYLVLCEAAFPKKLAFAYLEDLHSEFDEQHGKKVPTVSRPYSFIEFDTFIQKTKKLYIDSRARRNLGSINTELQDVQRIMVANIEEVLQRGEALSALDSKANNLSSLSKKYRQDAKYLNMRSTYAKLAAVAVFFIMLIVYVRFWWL

[4] = molecular target: T4, MOBKL3-Mps one binder kinase activator-like 3 (human, UniProt Q9Y3A3 1-225, limits assumed)
T4 sequence (looked up): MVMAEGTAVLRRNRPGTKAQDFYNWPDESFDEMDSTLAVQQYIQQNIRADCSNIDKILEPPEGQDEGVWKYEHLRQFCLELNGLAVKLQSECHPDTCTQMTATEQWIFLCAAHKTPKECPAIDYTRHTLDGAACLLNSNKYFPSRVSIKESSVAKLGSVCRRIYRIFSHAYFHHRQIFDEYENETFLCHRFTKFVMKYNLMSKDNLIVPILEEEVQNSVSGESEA

[5] = molecular target: DGKA-diacylglycerol kinase, alpha 80 kDa (DGKA) (human, UniProt P23743 1-735)
Sequence of DGKA-diacylglycerol kinase, alpha 80 kDa (DGKA) (P23743 whole entry): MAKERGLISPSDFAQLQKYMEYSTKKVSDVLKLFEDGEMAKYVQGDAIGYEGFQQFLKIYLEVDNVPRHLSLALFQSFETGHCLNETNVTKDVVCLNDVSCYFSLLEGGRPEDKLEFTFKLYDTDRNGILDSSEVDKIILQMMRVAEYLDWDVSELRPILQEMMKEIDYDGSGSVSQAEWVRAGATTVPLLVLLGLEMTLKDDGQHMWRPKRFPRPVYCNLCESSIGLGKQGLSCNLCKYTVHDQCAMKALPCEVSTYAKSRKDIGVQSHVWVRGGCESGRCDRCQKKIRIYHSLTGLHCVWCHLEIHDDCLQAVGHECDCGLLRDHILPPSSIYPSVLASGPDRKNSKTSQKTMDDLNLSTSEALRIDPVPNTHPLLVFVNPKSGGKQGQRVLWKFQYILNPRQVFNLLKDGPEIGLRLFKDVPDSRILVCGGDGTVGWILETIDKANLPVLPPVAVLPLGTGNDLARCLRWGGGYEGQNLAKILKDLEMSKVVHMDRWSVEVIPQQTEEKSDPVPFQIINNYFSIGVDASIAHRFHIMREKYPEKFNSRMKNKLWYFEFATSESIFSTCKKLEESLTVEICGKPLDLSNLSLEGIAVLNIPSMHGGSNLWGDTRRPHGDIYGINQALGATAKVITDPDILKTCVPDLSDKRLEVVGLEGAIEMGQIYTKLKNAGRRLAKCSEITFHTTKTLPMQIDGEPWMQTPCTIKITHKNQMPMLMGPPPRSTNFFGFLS

[6] = molecular target: T5, CAB39L-Calcium-binding protein 39-like (human, UniProt Q9H9S4 1-337)
T5 sequence (looked up): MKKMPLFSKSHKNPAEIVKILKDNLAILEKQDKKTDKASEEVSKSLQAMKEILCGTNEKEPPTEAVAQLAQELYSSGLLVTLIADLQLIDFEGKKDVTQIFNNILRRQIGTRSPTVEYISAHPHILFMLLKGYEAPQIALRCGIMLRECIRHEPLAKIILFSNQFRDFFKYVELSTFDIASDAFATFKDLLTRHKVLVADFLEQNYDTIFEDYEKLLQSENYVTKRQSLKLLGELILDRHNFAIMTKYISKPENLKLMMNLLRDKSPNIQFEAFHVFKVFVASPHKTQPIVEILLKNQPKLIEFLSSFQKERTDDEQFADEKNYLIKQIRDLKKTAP

[7] = molecular target: T6, C10orf58-chromosome 10 open reading frame 58 (C10orf58) (human, UniProt Q9BRX8 1-229, limits assumed)
T6 sequence (looked up): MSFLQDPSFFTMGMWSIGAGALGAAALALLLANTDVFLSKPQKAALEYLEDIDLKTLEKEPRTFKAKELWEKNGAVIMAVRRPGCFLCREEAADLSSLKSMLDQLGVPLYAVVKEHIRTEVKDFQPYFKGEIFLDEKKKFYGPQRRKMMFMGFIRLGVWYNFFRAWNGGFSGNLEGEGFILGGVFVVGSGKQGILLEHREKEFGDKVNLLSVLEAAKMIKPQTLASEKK

[8] = molecular target: T7, CDKL5-Cyclin-dependent kinase-like 5 (human, UniProt O76039-1 1-1030, limits assumed)
T7 sequence (looked up): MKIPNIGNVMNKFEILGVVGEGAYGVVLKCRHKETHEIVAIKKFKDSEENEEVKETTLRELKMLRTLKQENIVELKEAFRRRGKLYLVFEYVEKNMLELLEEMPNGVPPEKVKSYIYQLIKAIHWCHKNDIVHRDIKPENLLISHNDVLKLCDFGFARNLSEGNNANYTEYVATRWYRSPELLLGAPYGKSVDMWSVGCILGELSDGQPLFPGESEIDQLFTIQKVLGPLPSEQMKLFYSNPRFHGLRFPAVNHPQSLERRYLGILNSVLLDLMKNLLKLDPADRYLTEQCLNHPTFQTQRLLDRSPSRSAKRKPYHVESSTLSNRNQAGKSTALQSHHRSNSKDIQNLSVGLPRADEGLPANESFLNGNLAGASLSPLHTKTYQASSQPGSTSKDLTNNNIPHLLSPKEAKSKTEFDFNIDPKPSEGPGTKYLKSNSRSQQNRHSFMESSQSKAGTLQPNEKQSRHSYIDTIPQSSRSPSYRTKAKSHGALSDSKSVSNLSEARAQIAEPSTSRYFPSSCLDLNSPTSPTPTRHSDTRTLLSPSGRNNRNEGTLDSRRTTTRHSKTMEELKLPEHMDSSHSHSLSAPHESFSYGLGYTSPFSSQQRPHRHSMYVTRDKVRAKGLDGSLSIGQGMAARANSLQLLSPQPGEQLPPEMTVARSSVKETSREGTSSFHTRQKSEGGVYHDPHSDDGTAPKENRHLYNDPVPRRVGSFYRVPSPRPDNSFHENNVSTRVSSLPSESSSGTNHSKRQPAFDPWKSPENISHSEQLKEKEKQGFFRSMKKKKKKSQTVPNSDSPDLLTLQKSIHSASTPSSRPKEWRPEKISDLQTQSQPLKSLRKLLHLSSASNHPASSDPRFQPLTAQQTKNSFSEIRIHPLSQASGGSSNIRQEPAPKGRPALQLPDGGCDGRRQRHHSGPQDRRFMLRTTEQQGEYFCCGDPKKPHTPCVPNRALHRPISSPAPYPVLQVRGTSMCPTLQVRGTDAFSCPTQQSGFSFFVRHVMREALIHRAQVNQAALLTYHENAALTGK

[9] = molecular target: FTH1-ferritin, heavy polypeptide 1 (FTH1) (human, UniProt P02794 1-183)
Sequence of FTH1-ferritin, heavy polypeptide 1 (FTH1) (P02794 whole entry): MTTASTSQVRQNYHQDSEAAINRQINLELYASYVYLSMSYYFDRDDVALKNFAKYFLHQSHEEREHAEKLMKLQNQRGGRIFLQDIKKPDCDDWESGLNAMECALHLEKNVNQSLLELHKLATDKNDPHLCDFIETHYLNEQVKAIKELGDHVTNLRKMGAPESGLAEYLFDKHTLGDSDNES

B1: 3× Flag-3×MBT (designed binder)
chain: EEWSSSQPATGEKKECWSWESYLEEQKAITAPVSLFQDSQAVTHNKNGFKLGMKLEGIDPQHPSMYFILTVAEVCGYRLRLHFDGYSECHDFWVNANSPDIHPAGWFEKTGHKLQPPKGYKEEEFSWSQYLRSTRAQAAPKHLFVSQSHSPPPLGFQVGMKLEAVDRMNPSLVCVASVTDVVDSRFLVHFDNWDDTYDYWCDPSSPYIHPVGWCQKQGKPLTPPQDYPDPDNFCWEKYLEETGASAVPTWAFKVRPPHSFLVNMKLEAVDRRNPALIRVASVEDVEDHRIKIHFDGWSHGYDFWIDADHPDIHPAGWCSKTGHPLQPPLGPREPSSASPGG
notes: also called Flag-tagged 3×MBT; 3xFlag-3xMBT; not shown: made by PreScission cleavage of GST-3× Flag-3×MBT
GST Average SNR [1]: 1.21 | GST Average SNR [2]: 0.667 | GST Average SNR [3]: -0.797 | GST Average SNR [4]: -0.451 | GST Average SNR [5]: 1.23 | GST Average SNR [6]: 0.182 | GST Average SNR [7]: 0.966 | GST Average SNR [8]: 1.43 | GST Average SNR [9]: -0.802
